Results taken from publication PMC4178959 (The Journal of Cell Biology, 2014).
Where “and” joins values, the source holds several entries; their conditions need not be identical. Equal values may be shown once.

B2: His6-BakΔTM (recombinant His-tagged Bak lacking the transmembrane domain, aa 1–186) (domain or fragment, UniProt Q16611 1-186, looked up)
chain: MASGQGPGPPRQECGEPALPSASEEQVAQDTEEVFRSYVFYRHQQEQEAEGVAAPADPEMVTLPLQPSSTMGQVGRQLAIIGDDINRRYDSEFQTMLQHLQPTAENAYEYFTKIATSLFESGINWGRVVALLGFGYRLALHVYQHGLTGFLGQVTRFVVDFMLHHCIARWIAQRGGWVAALNLGNG

How the values were obtained:
[1] = biological target: B2; assay: SPR
GST-Casp8p41 = GST-Casp8p41 (UniProt Q14790 1-355); assay: SPR
GST-Casp8p41 V150A/L157A = GST-Casp8p41 V150A/L157A (UniProt Q14790 1-355, V150A | L157A); assay: SPR
GST-Casp8p41 V150E/L157K = GST-Casp8p41 V150E/L157K (UniProt Q14790 1-355, V150E | L157K); assay: SPR
cross-linking = biological target: the molecule itself; assay: cross-linking

B1: GST–procaspase 8 (full-length procaspase 8 fused to GST) (natural protein, UniProt Q14790 1-479, looked up)
chain: MDFSRNLYDIGEQLDSEDLASLKFLSLDYIPQRKQEPIKDALMLFQRLQEKRMLEESNLSFLKELLFRINRLDLLITYLNTRKEEMERELQTPGRAQISAYRVMLYQISEEVSRSELRSFKFLLQEEISKCKLDDDMNLLDIFIEMEKRVILGEGKLDILKRVCAQINKSLLKIINDYEEFSKERSSSLEGSPDEFSNGEELCGVMTISDSPREQDSESQTLDKVYQMKSKPRGYCLIINNHNFAKAREKVPKLHSIRDRNGTHLDAGALTTTFEELHFEIKPHDDCTVEQIYEILKIYQLMDHSNMDCFICCILSHGDKGIIYGTDGQEAPIYELTSQFTGLKCPSLAGKPKVFFIQACQGDNYQKGIPVETDSEEQPYLEMDLSSPQTRYIPDEADFLLGMATVNNCVSYRNPAEGTWYIQSLCQSLRERCPRGDDILTILTEVNYEVSNKDDKKNMGKQMPQPTFTLRKKLVFPSD
fold less tight binding than GST-Casp8p41 [1]: 100 fold

RPEIWIAQELRRIGDEFNAYYARRVF [Bim BH3 peptide]
binding result [1]: binds

B2
Kd (GST-Casp8p41): 16 nM and 19 nM
Kd (GST-Casp8p41 V150A/L157A): 22 nM
Kd (GST-Casp8p41 V150E/L157K): 400 nM
stoichiometry N (cross-linking): 2
